Results from patent US11071783 (DUKE UNIVERSITY, dated 2021).

T1: STUB1 (STIP1 homology and U-box containing protein 1) (human, UniProt Q9UNE7 1-303)
T1 construct: also called E3 ubiquitin ligase STIP1 Homology and U-Box Containing Protein 1
T1 sequence (looked up): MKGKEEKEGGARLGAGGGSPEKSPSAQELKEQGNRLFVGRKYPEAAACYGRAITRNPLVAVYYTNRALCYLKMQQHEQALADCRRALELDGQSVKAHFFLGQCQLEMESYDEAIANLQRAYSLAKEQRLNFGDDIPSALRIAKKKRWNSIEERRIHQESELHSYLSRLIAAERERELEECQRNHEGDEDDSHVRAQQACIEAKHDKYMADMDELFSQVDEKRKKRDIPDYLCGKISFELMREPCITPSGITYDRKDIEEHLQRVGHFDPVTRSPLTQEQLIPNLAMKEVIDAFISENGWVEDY

B1: DH511.2 (antibody, V domains shown)
VH: QVQLVQSGGGLVKPGGSLTLSCSASGFFFDNSWMGWVRQAPGKGLEWVGRIRRLKDGATGEYGAAVKDRFTISRDDSRNMLYLHMRTLKTEDSGTYYCTMDEGTPVTRFLEWGYFYYYMAVWGRGTTVIVSS
VL: DIVMTQSPSSVSASVGDRVTITCRASQNIRDYLNWYQHKPGGSPRLLIYAASTLQTGVPSRFSGSGSGNLFTLTITNLQPEDFATYYCQENYNTIPSLSFGQGTKVDIR
notes: also called DH512; Ab510049

What was measured:
[1] = target: gp41 of HIV-1 isolate B.BG1168 Env (HIV-1); test: cell-based or functional assay
[2] = target: T1, STUB1 (STIP1 homology and U-box …); test: protein microarray of >9400 human proteins
Experimental: Antibodies were also screened for binding to a panel of >9,400 human proteins using a Protoarray microarray (Invitrogen, Carlsbad, Calif.) according to the manufacturer's instructions and as described in (6). […] Arrays were scanned using a GenePix 4000B scanner (Molecular Devices, Sunnyvale, Calif.) at a wavelength of 635 nm, 10 µm resolution, using 100% power and 650 gain. The fluorescence intensity of antibody binding was measured with the GenePix Pro 5.0 program (Molecular Devices, Sunnyvale, Calif.).

Row | Molecule | lifetime of neutralization (t1/2), post-attachment TZM-bl assay with B.BG1168 [1] [min] | binding result [2]
1 | 4E10 (antibody) | 28.2 | 
2 | 10E8 (antibody) | 25.6 | 
3 | B1 |  | binds
